Measurements taken from the DeepSol protein solubility set.

experiment: soluble on expression in E. coli; label from the status in PepcDB or PDB records

| Sequence | soluble on expression in E. coli |
| --- | --- |
| MHHHHHHSSGVDLGTENLYFQSMARLPKLAVFDLDYTLWPFWVDTHVDPPFHKSSDGTVRDRRGQDVRLYPEVPEVLKRLQSLGVPGAAASRTSEIEGANQLLELFDLFRYFVHREIYPGSKITHFERLQQKTGIPFSQMIFFDDERRNIVDVSKLGVTCIHIQNGMNLQTLSQGLETFAKAQTGPL | soluble |
| MHHHHHHSSGVDLGTENLYFQSMCAAQMPPLAHIFRGTFVHSTWTCPMEVLRDHLLGVSDSGKIVFLEEASQQEKLAKEWCFKPCEIRELSHHEFFMPGLVDTHIHASQYSFAGSSIDLPLLEWLTKYTFPAEHRFQNIDFAEEVYTRVVRRTLKNGTTTACYFATIHTDSSLLLADITDKFGQRAFVGKVCMDLNDTFPEYKETTEESIKETERFVSEMLQKNYSRVKPIVTPRFSLSCSETLMGELGNIAKTRDLHIQSHISENRDEVEAVKNLYPSYKNYTSVYDKNNLLTNKTVMAHGCYLSAEELNVFHERGASIAHCPNSNLSLSSGFLNVLEVLKHEVKIGLGTDVAGGYSYSMLDAIRRAVMVSNILLINKVNEKSLTLKEVFRLATLGGSQALGLDGEIGNFEVGKEFDAILINPKASDSPIDLFYGDFFGDISEAVIQKFLYLGDDRNIEEVYVGGKQVVPFSSSV | soluble |
| MHHHHHHSSGVDLGTENLYFQSMGEVVMSQAIQPAHATARGELSAGQLLKWIDTTACLAAEKHAGVSCVTASVDDIQFEETARVGQVITIKAKVTRAFSTSMEISIKVMVQDMLTGIEKLVSVAFSTFVAKPVGKEKIHLKPVTLLTEQDHVEHNLAAERRKVRLQHEDTFNNLMKESSKFDDLIFDEEEGAVSTRGTSVQSIELVLPPHANHHGNTFGGQIMAWMETVATISASRLCWAHPFLKSVDMFKFRGPSTVGDRLVFTAIVNNTFQTCVEVGVRVEAFDCQEWAEGRGRHINSAFLIYNAADDKENLITFPRIQPISKDDFRRYRG | soluble |
| MHHHHHHSSGVDLGTENLYFQSMKICSIALVGKYTKLRDCYASVFKALEHSALAINHKLNLMYIDSIDLEKITETEDPVKFHEAWQKLCKADGILVPGGFGIRGTLGKLQAISWARTKKIPFLGVCLGMQLAVIEFARNCLNLKDADSTEFRPNAPVPLVIDMPEHNPGNLGGTMRLGIRRTVFKTENSILRKLYGDVPFIEERHRHRFEVNPNLIKQFEQNDLSFVGQDVDGDRMEIIELANHPYFVGVQFHPEFSSRPMKPSPPYLGLLLAATGNLNAYLQQGCKLS | soluble |
| MHHHHHHSSGVDLGTENLYFQSMQRGYLLTRNPHLNKDLAFTLEERQQLNIHGLLPPSFNSQEIQVLRVVKNFEHLNSDFDRYLLLMDLQDRNEKLFYRVLTSDIEKFMPIVYTPTVGLACQQYSLVFRKPRGLFITIHDRGHIASVLNAWPEDVIKAIVVTDGERILGLGDLGCNGMGIPVGKLALYTACGGMNPQECLPVILDVGTENEELLKDPLYIGLRQRRVRGSEYDDFLDEFMEAVSSKYGMNCLIQFEDFANVNAFRLLNKYRNQYCTFNDDIQGTASVAVAGLLAALRITKNKLSDQTILFQGAGEAALGIAHLIVMALEKEGLPKEKAIKKIWLVDSKGLIVKGRASLTQEKEKFAHEHEEMKNLEAIVQEIKPTALIGVAAIGGAFSEQILKDMAAFNERPIIFALSNPTSKAECSAEQCYKITKGRAIFASGSPFDPVTLPNGQTLYPGQGNNSYVFPGVALGVVACGLRQITDNIFLTTAEVIAQQVSDKHLEEGRLYPPLNTIRDVSLKIAEKIVKDAYQEKTATVYPEPQNKEAFVRSQMYSTDYDQILPDCYSWPEEVQ | soluble |
| MHHHHHHSSGVDLGTENLYFQSNAMANPLYHKHIISINDLSRDELELVLRTAASLKKTPQPELLKHKVIASCFFEASTRTRLSFETSIHRLGASVVGFSDSSNTSLGKKGETLADTMSVISTYVDAIVMRHPQEGASRLAAQFSGNVPIVNAGDGANQHPTQTLLDLFTIQETQGRLDNINIAMVGDLKYGRTVHSLTQALAKFNGNHFFFIAPDALAMPAYILQMLEEKEIEYSLHESLEEVVPELDILYMTRVQKERLDPSEYANVKAQFILRSSDLTGARDNLKVLHPLPRIDEITTDVDKTPYAYYFQQAGNGIFARQALLALVLNAELAL | soluble |
| MHIERLDFENSPYLGVFGVATDRVVLIREGLQEKKLEVIRETLKVPVIEVSVMKSRIIGTLATGNSNAIILPWYVWDAEIERIKKALSEYGIDMEVVPFRSKYTALGNLILTNDKAALVSAKFSRKEAQEIGEILGVEVERGVIAGLHAVGSAGVVTNKGGLVHPETSDEELEWLSDLFKVDVYVGTANMGVPYVGTCMLANSNGVVVGHLTTGPEIVKIEEALGFV | soluble |
